Consider 52 sequences from the supplement of paper PMC10567573.

± gives the standard deviation.

A short description of this data set: protein stability index of a GFP-peptide fusion (GPS, HEK-293T) (PSI 1-6); higher = more stable.
The mark [1] stands for this setting: treatment: DMSO, c terminus: a fixed tail appended.
Setting [2] is: treatment: MLN4924 1 uM, 8 h, c terminus: a fixed tail appended.
The mark [3] stands for this setting: treatment: DMSO, c terminus: native.
The mark [4] stands for this setting: treatment: MLN4924 1 uM, 8 h, c terminus: native.
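Note: 24-mer peptide tiles fused after GFP, lentivirally expressed, FACS-sorted into six equal bins by GFP/DsRed ratio, decoded by Illumina sequencing, PSI is the read-weighted mean bin number.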

In the case of MDSAGQDINLNSPNKGLLSDSMTD [TPD52L2], the protein stability index reads like this: under setting [1], 5.32 ± 0.2; under setting [2], 5.25 ± 0.2.
For MDSKDVEVSSIQVRRKPQHGVCSQ [SERPINB9P1] the same measures were 4.47 ± 0.13 and 4.64 ± 0.22.
In the case of MDVTSRCTLGDPNKLPEGVPQPAR [KLHL20], the protein stability index under setting [1] came to 4.64 ± 0.28 and the protein stability index under setting [2] is 4.72 ± 0.23.
For MDYDSYQHYFYDYDCGEDFYRSTA [MYCL] the same measures were 2.75 ± 0.35 and 2.51 ± 0.26.
The corresponding values for MEKIPFVLGGNLQGGELVVAYPYD [CPXM2] are 2.81 ± 0.48 and 2.79 ± 0.77.
On to MGNILTCCINSHCGWPRGKDAPCY [DRICH1], for which the protein stability index reads like this: under setting [1], 2.44 ± 0.39; under setting [2], 2.08 ± 0.15.
For MGQHISLAPIHKLEEALYEYQPLQ [MNAT1], the protein stability index is, setting by setting: under setting [1], 3 ± 0.29; under setting [2], 3 ± 0.048.
With MGTEPAPSAPEALHSLPGVSLSLE [TBX6], the protein stability index was 4.28 ± 0.22 under setting [1] and 4.41 ± 0.24 under setting [2].
The corresponding values for MHHCKRYRSPEPDPYLSYRWKRRR [CLK3] are 3.49 ± 0.39 and 3.69 ± 0.21.
For MIHGRSVLHIVASLIILHLSGATK [NETO1] the same measures were 3.03 ± 0.24 and 3.02 ± 0.54.
For MILLVNLFVLLSVVCVLLNLAGFI [FAM189A2] the same measures were 3.03 ± 0.34 and 3.14 ± 0.47.
On to MINSTSTQPPDESCSQNLLITQQI [P2RY14], for which the protein stability index turned out to be 4.24 ± 0.16 under setting [1] and 4.26 ± 0.096 under setting [2].
Regarding MKDRLAELLDLSKQYDQQFPDGDD [STX11], the protein stability index worked out at 4.77 ± 0.33 under setting [1] and 4.89 ± 0.15 under setting [2].
Turning to MLASVESVPFSFDPNTAAGWLSVS [TRIM35], the protein stability index is 2.31 ± 0.22 under setting [1] and 2.33 ± 0.28 under setting [2].
Turning to MLYAKPPPTINGIKGLQRKERLKP [KRT34], the protein stability index by setting is: under setting [1], 3.1 ± 0.28; under setting [2], 3.43 ± 0.19.
The corresponding values for MMRTQCLLGLRTFVAFAAKLWSFF [CTDNEP1] are 4.22 ± 0.2 and 4.02 ± 0.29.
For MPLLRDIIKMATARQETKEMARKV [ZER1] the same measures were 2.99 ± 0.3 and 3.06 ± 0.19.
For MSHKQIYYSDKYDDEEFEYRHVML [CKS1B] the same measures were 2.52 ± 0.17 and 2.66 ± 0.18.
For MSLEGTEKASWLGEQPQFWSKTQV [ELF3], the protein stability index amounted to 3.31 ± 0.42 under setting [1] and 3.33 ± 0.16 under setting [2].
For MVAHDETGGLLPIKRTIRVLDVNN [NET1] the same measures were 3.27 ± 0.21 and 3.35 ± 0.25.
The corresponding values for MYEEEMEREEITTKKRKLGKNPDV [FAM50A] are 4.94 ± 0.57 and 5.14 ± 0.44.
Consider MYLKQLAEYRKYIHSRKCRCLVM [RHOBTB3], for which the protein stability index stood at 1.95 ± 0.5 under setting [3] and 2 ± 0.33 under setting [4].
Take NAKLAADDFRTKYQTEQSLRQLVE [KRT33B]: the protein stability index worked out at 3.4 ± 0.26 under setting [1] and 3.48 ± 0.14 under setting [2].
For NDINILRVSNPGRLAELLLLETDA [GADD45A] the same measures were 2.31 ± 0.19 and 2.5 ± 0.5.
NDNKVLRYLAVLESPIPEDKDRRF [EFHC1]: the protein stability index is 3.51 ± 0.21 under setting [1] and 3.6 ± 0.15 under setting [2].
With NEEIRAVGRLKRERSMSENAVRQN [MFF], the protein stability index runs as follows: under setting [1], 5.15 ± 0.2; under setting [2], 4.87 ± 0.27.
NETGYLSSVECYNLETNEWRYVSS [KLHL14]: the protein stability index is, setting by setting: under setting [1], 2.61 ± 0.32; under setting [2], 2.91 ± 0.57.
As for NFQFLPQVNGHPDPFDEIILFSLP [PTPN9], the protein stability index runs as follows: under setting [1], 2.4 ± 0.29; under setting [2], 2.37 ± 0.19.
With NGAGVTVLRREISELRTKVQEQQK [FBXO28], the protein stability index under setting [1] was 4.11 ± 0.23 and the protein stability index under setting [2] was determined as 4.21 ± 0.13.
For NGIHVCMVFEVLGHHLLKWIIKSN [SRPK2] the same measures were 3.01 ± 0.14 and 2.96 ± 0.29.
The sequence NGLALGPDLNILEDSAESRPWRAG [PSD2] returned a protein stability index under setting [1] of 4 ± 0.14 and a protein stability index under setting [2] of 4.24 ± 0.38.
The corresponding values for NGSSEKREVRQFQFTAWPDHGVPE [PTPRD] are 4.41 ± 0.14 and 4.43 ± 0.19.
For the sequence NGVTQKASAPTYPSLYSSYHQGCL [NANOGP8], the protein stability index came out at 2.75 ± 0.11 under setting [1] and 2.93 ± 0.34 under setting [2].
For NIEEIDEIPLVIKYKKAVGLKLKQ [WDR88] the same measures were 2.78 ± 0.19 and 2.91 ± 0.28.
Consider NISHTKEKKKGKAKKKRLTKADIG [WASL], for which the protein stability index was 4.78 ± 0.23 under setting [1] and 4.81 ± 0.26 under setting [2].
For NKALWENNKLKLQQKLVIDTVTEV [CBY2] the same measures were 3.16 ± 0.35 and 3.29 ± 0.25.
For NKLQTLSPSHKGIAAPHAGANVKP [ZC2HC1A] the same measures were 4.35 ± 0.16 and 4.457 ± 0.035.
With NKPAVKLLYNRSNNKYSYTSNSDD [KCTD10], the protein stability index came out at 4.1 ± 0.1 under setting [1] and 4.03 ± 0.31 under setting [2].
The corresponding values for NLEKQLICPICLEMFTKPVVILPC [TRIM55] are 2.41 ± 0.34 and 2.33 ± 0.22.
As to NLLISLTFLTVTDLIGLPWVCFIY [SLC2A12], the protein stability index under setting [1] stood at 3.36 ± 0.45 and the protein stability index under setting [2] came out at 3.19 ± 0.63.
For NLSYKQVKTWFQNQRMKSKRWQKN [NANOGP8] the same measures were 2.54 ± 0.23 and 2.57 ± 0.33.
On to NLWYSFQDEEDMFMVVDLLLGGDL [STK32A], for which the protein stability index under setting [1] worked out at 2.41 ± 0.69 and the protein stability index under setting [2] was 2.2 ± 0.39.
For NMERFGEDNLEDDDVEMKNGITQG [CDC14A] the same measures were 5.54 ± 0.19 and 5.53 ± 0.23.
The corresponding values for NNIKFKKSSILTRAGEQRKRSQSM [CLCN6] are 4.06 ± 0.41 and 4.39 ± 0.1.
As for NNKLKLQQKLVIDTVTEVTARMEM [CBY2], the protein stability index is, setting by setting: under setting [1], 2.94 ± 0.53; under setting [2], 2.89 ± 0.41.
The corresponding values for NNYRLGGNPSTNSRVTASSGITIP [SMARCE1] are 3.64 ± 0.3 and 3.54 ± 0.38.
The corresponding values for NPALEGLTQPLQGGTPHCEPCQLP [DNAAF3] are 4.89 ± 0.36 and 4.97 ± 0.24.
Regarding NPAVRTAAANAAAGAAENAFRAP [SCAMP3], the protein stability index by setting is: under setting [3], 3.08 ± 0.69; under setting [4], 3.36 ± 0.55.
Regarding NPEEYNLDEPNAESDYTYSSSYEQ [SRPK2], the protein stability index runs as follows: under setting [1], 5.52 ± 0.19; under setting [2], 5.46 ± 0.25.
Turning to NPRAPVIIYKQTKGGVQNFNKDLV [CEP70], the protein stability index reads like this: under setting [1], 2.52 ± 0.18; under setting [2], 2.46 ± 0.25.
The corresponding values for NPYTELLVLKAHHDIVRFLVQLDD [WDR41] are 2.84 ± 0.39 and 2.65 ± 0.35.
For NQKSDIWALGCVLYELASLKRAFE [NEK8] the same measures were 2.38 ± 0.72 and 2.41 ± 0.34.
